# From patent publication US20170253656A1 (SUTRO BIOPHARMA, published 2017)
# Where a chain is given by its changes, count along the chain named.
# T1: hu-CD74 antigen (R&D SYSTEMS catalog #3590-CD-050) (human, UniProt P04233-2 73-232, limits assumed)
# T1 construct: Bought antigen; also called rhCD74; human CD74
# T1 sequence (looked up): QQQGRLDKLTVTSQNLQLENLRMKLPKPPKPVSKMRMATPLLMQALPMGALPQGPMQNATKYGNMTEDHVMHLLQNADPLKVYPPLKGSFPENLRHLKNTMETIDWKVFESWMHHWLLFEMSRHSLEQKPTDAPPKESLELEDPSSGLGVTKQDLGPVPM
# B1: 1275-G02 light chain paired with HC 1251-F07 (SEQ ID NO: 311) (antibody, human IgG1, V domains shown)
# VH: QVQLVESGGGVVQPGRSLRLSCAASGFTFSSHGMHWVRQAPDKGLEWVAVIWDDGSNEVYADSVKGRFTISRDNSKNTLYLQMNSLRAEDTAVYYCARGGTRIRGLRYGTDVWGQGTTVTVSS
# VL: DIQMTQSPSSLSASVGDRVTITCRASQGLGSFLAWYQQKPEKAPKSLIYLGNLLQIGVPSRFSGSGSGTDFTLTISSLQPEDFATYYCQQYNAYPLTFGGGTKVEIK
# B2: 1251-A03 heavy chain paired with VL SEQ ID NO: 272 (antibody, V domains shown)
# VH: QVQLVESGGGVVQPGRSLRLSCAASGFAFSDHGMHWVRQAPDKGLEWVAVIWYDGSHKIYADSVKGRFTISRDNSKNTLYLQMNSLRAEDTAVYYCARGGSLAGGAVYGTDVWGQGTTVTVSS
# VL: B1 VL with L29I, G30S, F32W, L50A, G51A, N52S, L53S, I56S, A93S
# B3: 1251-A06 heavy chain paired with VL SEQ ID NO: 272 (antibody, V domains shown)
# VH: B1 VH with T28D, H32Y, N57D, E58R, V59Y, I103V, R104L, L106A, R107I, Y108H
# VL: B1 VL with L29I, G30S, F32W, L50A, G51A, N52S, L53S, I56S, A93S
# B4: 1251-A02 heavy chain paired with VL SEQ ID NO: 272 (antibody, V domains shown)
# VH: B2 VH
# VL: B1 VL with L29I, G30S, F32W, L50A, G51A, N52S, L53S, I56S, A93S
# notes: Selected from a Fab library; VH3-33 / Vk1-12
# B5: 1251-B09 heavy chain paired with VL SEQ ID NO: 272 (antibody, V domains shown)
# VH: QVQLVESGGGVVQPGRSLRLSCAASGFNFSDYGMHWVRQAPDKGLEWVAVTWYDGSREYYADSVKGRFTISRDNSKNTLYLQMNSLRAEDTAVYYCARGGTLVHGALYGNDVWGQGTTVTVSS
# VL: B1 VL with L29I, G30S, F32W, L50A, G51A, N52S, L53S, I56S, A93S
# B6: 1251-D02 heavy chain paired with VL SEQ ID NO: 272 (antibody, V domains shown)
# VH: B1 VH with T28S, S30A, N57D, E58R, V59Y, I103V, R104L, L106A, R107I, Y108H
# VL: B1 VL with L29I, G30S, F32W, L50A, G51A, N52S, L53S, I56S, A93S
# B7: 1251-D06 heavy chain paired with VL SEQ ID NO: 272 (antibody, V domains shown)
# VH: B5 VH with N28S, S30G, D31S, T51V, R57K, E58T, Y59I, H104R, L107V, N110L
# VL: B1 VL with L29I, G30S, F32W, L50A, G51A, N52S, L53S, I56S, A93S
# B8: 1251-B08 heavy chain paired with VL SEQ ID NO: 272 (antibody, V domains shown)
# VH: B5 VH with T51I, R57I, E58S, L102V, V103E, L107V, N110T, T117A
# VL: B1 VL with L29I, G30S, F32W, L50A, G51A, N52S, L53S, I56S, A93S
# B9: 1251-F07 heavy chain paired with VL SEQ ID NO: 272 (antibody, V domains shown)
# VH: B1 VH
# VL: B1 VL with L29I, G30S, F32W, L50A, G51A, N52S, L53S, I56S, A93S
# B10: 1251-D09 heavy chain paired with VL SEQ ID NO: 272 (antibody, V domains shown)
# VH: QVQLVESGGGVVQPGRSLRLSCAASGFSFSSYGMHWVRQAPDKGLEWVAVIWYDASIRKYAGSVKGRFTISRDNSKNTLYLQMNSLRAEDTAVYYCARGGTVERGAIYGTDVWGQGTTVTVSS
# VL: B1 VL with L29I, G30S, F32W, L50A, G51A, N52S, L53S, I56S, A93S
# B11: 1251-G02 heavy chain paired with VL SEQ ID NO: 272 (antibody, V domains shown)
# VH: B5 VH with N28T, D31S, T51I, Y53H, R57K, E58D, T101Q, V103D, L107I, N110L
# VL: B1 VL with L29I, G30S, F32W, L50A, G51A, N52S, L53S, I56S, A93S
# Target: T1, hu-CD74 antigen (R&D SYSTEMS catalog …)
# Test: SPR (Biacore T200), captured on anti-human Fc, rhCD74 analyte
# Experimental: Kinetic binding experiments were performed at 25° C. using 1×HBS-EP+buffer. Kinetic data was collected by injecting test and control antibodies at concentrations of 10, 5 and 2.5 μg/mL for 12 s at a flow rate of 10 μl/min on flow cells 2, 3 and 4 respectively, followed by a buffer wash for 30 s at the same flow rate. Kinetic characterization of antibody samples was carried out with 8 concentrations of a 1:2 dilution series of rhCD74 antigen (R&D Systems) and 2 injections of 0 nM antigen (buffer only). […] Between each ligand capture and analyte binding cycle, regeneration was carried out using 2 injections of 3M MgCl₂ for 30 seconds at 30 μL/min, followed by a 30 second buffer wash step.
Kd,koff,kon,Binder
0.528 nM,0.000297 s⁻¹,563000 M⁻¹ s⁻¹,B1
0.184 nM,0.000305 s⁻¹,1.65e+06 M⁻¹ s⁻¹,B2
0.114 nM,9.99e-05 s⁻¹,873000 M⁻¹ s⁻¹,B3
0.2 nM,0.000302 s⁻¹,1.51e+06 M⁻¹ s⁻¹,B4
0.225 nM,0.000218 s⁻¹,968000 M⁻¹ s⁻¹,B5
0.189 nM,0.000167 s⁻¹,885000 M⁻¹ s⁻¹,B6
0.0752 nM,0.000173 s⁻¹,2.3e+06 M⁻¹ s⁻¹,B7
0.224 nM,0.000106 s⁻¹,475000 M⁻¹ s⁻¹,B8
0.185 nM,0.000125 s⁻¹,678000 M⁻¹ s⁻¹,B9
0.139 nM,0.000137 s⁻¹,989000 M⁻¹ s⁻¹,B10
0.651 nM,0.00084 s⁻¹,1.29e+06 M⁻¹ s⁻¹,B11
